Biological target: soluble trimeric SARS-CoV-2 spike protein (residues 1-1208) (SARS-CoV-2), P0DTC2
Experiment: SPR
Conditions: remark: other sources report otherwise

B1: soluble recombinant human DPP4 (residues 29-766), His6-tagged, P27487 29-766 (enzyme)
chain: NKGTDDATADSRKTYTLTDYLKNTYRLKLYSLRWISDHEYLYKQENNILVFNAEYGNSSVFLENSTFDEFGHSINDYSISPDGQFILLEYNYVKQWRHSYTASYDIYDLNKRQLITEERIPNNTQWVTWSPVGHKLAYVWNNDIYVKIEPNLPSYRITWTGKEDIIYNGITDWVYEEEVFSAYSALWWSPNGTFLAYAQFNDTEVPLIEYSFYSDESLQYPKTVRVPYPKAGAVNPTVKFFVVNTDSLSSVTNATSIQITAPASMLIGDHYLCDVTWATQERISLQWLRRIQNYSVMDICDYDESSGRWNCLVARQHIEMSTTGWVGRFRPSEPHFTLDGNSFYKIISNEEGYRHICYFQIDKKDCTFITKGTWEVIGIEALTSDYLYYISNEYKGMPGGRNLYKIQLSDYTKVTCLSCELNPERCQYYSVSFSKEAKYYQLRCSGPGLPLYTLHSSVNDKGLRVLEDNSALDKMLQNVQMPSKKLDFIILNETKFWYQMILPPHFDKSKKYPLLLDVYAGPCSQKADTVFRLNWATYLASTENIIVASFDGRGSGYQGDKIMHAINRRLGTFEVEDQIEAARQFSKMGFVDNKRIAIWGWSYGGYVTSMVLGSGSGVFKCGIAVAPVSRWEYYDSVYTERYMGLPTPEDNLDHYRNSTVMSRAENFKQVEYLLIHGTADDNVHFQQSAQISKALVDVGVDFQAMWYTDEDHGIASSTAHQHIYTHMSHFIKQCFSLP
  Kd: > 10 µM

Source: paper PMC7698748
